This is an account of results in paper doi:10.1101/465575 (bioRxiv, 2018).

Series [1] has as its target T1, Rv0081-S/Q-A S48A;S49A;S52A;Q53A (Mycobacterium tuberculosis) (UniProt P9WMI7).
T1 sequence: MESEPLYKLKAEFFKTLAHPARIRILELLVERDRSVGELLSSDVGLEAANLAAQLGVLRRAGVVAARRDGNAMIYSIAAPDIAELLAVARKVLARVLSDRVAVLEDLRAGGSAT
Kind of series: SPR. For orientation: SPR reads the build-up and loss of mass on a sensor chip optically.

The series “SEC-MALS” concerns the molecule itself. Kind of series: SEC-MALS. In general terms: In gel filtration, larger molecules generally elute earlier.

Changes are numbered by the printed parent chain.

For the molecule “ATCCGCACTATCTGATAAATTCTTCAACTCGTC (double strand) [ds-Wt]”, the Kd in series [1] was found to be 19.6 µM.

B1: Rv0081 transcription factor of Mycobacterium tuberculosis (natural protein)
chain: T1 sequence with A48S, A49S, A52S, A53Q
B1: the “stoichiometry N” value in the series “SEC-MALS” was determined as 2.

Broadly, the Kd is the concentration at which binding is half-saturated. Broadly, the stoichiometry N is the number of molecules, sites or subunits per partner or assembly.
